# According to the DeepSol protein solubility set:
# Assay: soluble on expression in E. coli; label from the status in PepcDB or PDB records
row,Sequence,soluble on expression in E. coli
1,MAHHHHHHSLIDLHIHSNYSDGQGSVEEIARRAKERGLKAIAIVDHSIELPFGLTEKKARMREIEIENAASLYGIKIYSGIECSINAAGEIVLPDFDFDFIIASVHEFVYGQAYYERVIRCLESHDVDVLGHPFSPLFGFDGRLAEMDEKLLDVVEERGVAVELNSSHKSPQDEFLQLCRDRKIAYSIGSDAHSLSGVGEVGWSVEKAKRYMAGAKLFTPEG,not soluble
2,MAHHHHHHSLIISSLTNPNFKVGLPKVIAEVCDYLNTLDLNALENGRHDINDQIYMNVMEPETAEPSSKKAELHHEYLDVQVLIRGTENIEVGATYPNLSKYEDYNEADDYQLCADIDDKFTVTMKPKMFAVFYPYEPHKPCCVVNGKTEKIKKLVVKVPVKLIEG,not soluble
3,MAHHHHHHSLRVVSGEFGGRPLKTLDGKITRPTSDKVRGAIFNMIGPYFNGGRVLDLFAGSGGLAIEAVSRGMSAAVLVEKNRKAQAIIQDNIIMTKAENRFTLLKMEAERAIDCLTGRFDLVFLDPPYAKETIVATIEALAAKNLLSEQVMVVCETDKTVLLPKEIATLGIWKEKIYGISKVTVYVNEG,soluble
4,MAHKSKSPYLMYPEKEPFPILNKHSHYDHLFEEMYELEEKGEILVFRITEEYRPKYVYTRTGRIKVIPTNKLWHHKSCGQCGNIPGYPASIFWFMNKFGLDYLNEPHQTSCTAWNYHGSGTSNPVALAAVWLRNMHQAWKTGYYPLIHCGTSFGSYKETREQLIFNKELREAVKPILKKLGRLTEDGRIVIPQEIVHYSEWVHAMRDGNSRPLRKRKESPKE,not soluble
5,MAHTPTMLAAAAPFMPEATGVDPALDALLAGLQAHPARIDPKYLYDALGSSLFAAITQLPEYYPTRCEAEIFATHLEAIARHTGPVRTLIDLGAGDCAKAERLLPCLRPQRYVPIDISTDFLGQAVARVRRAHPWLDVLPLGRDLNAGLDLPEAIDAQGRLFFYPGSSIGNLDPDAALALLASLRAQAGVSGGLLIGVDRVKARAIVEPAYDDALHLTGAFNLNLLRHVNSVLGSDFDVRDWTHVALYNEPRSRMEMHLQARSDIRVRWPGGQRRFQADERIHTENSYKYTIERFVDLLRRAGYGDIRYWSDARDWFSVFSARA,soluble
6,MAIAPQQIQERLKQEQYQKFVVADIGNFPHCLAQTPEGIASGQRYQKYSTNSLSRTPPFSQWGAPQLLTPKSAQEYIKFAQQRNKKSSFKIDGEAVRVSECSNFAYHSAGVLLDDPQIRTQYDVAVIGSMHSNGRYLHNITLLVPKGSRLPQPPQQLTAEVFPIGTLIVDPWAVGMGHPPEQALAIPKEQFAYNRSLFPATVNYQSALDESLTSTRTGQLTPYTGTPSRTGRQEVRAESQFPGTRRPVSATIPGNFAAYHELWRNAFQEIMNDPRHQLHRNDVEYKKIHAIRTVLDDYTKGGNTWWAKFRRIFTFHWNRHHVKVVDDIVKEIDAGNYTTSRALVDRLDNLAISLGSKLNPKGTLKEQIGFIKIQEQNPVEEIENLSRPNLT,not soluble
7,MAIKGLDQAIDNLSRVRKNAIPAASAMTINRVATTAINQSSSQVARETKVRRKLVKERSRLKRATVRNPNAKIIVNRGDLPVIKLGIRMLGRRPNSILKAGQHRYQRAFIQRLKNGRWHVMQRVAGKNRYPIDVVKIPMAAPLKQAFDENVDRIRCERLPGELASALKQQLRIAIKR,not soluble
8,MAILITGGAGYIGSHTCVELLNNNYKIIVVDNLSNSSIESLNRVKEITGKQFEFYKENVLNREKMNEIFLENNIEAVIHFAGFKAVGESTTTPLAYYYNNIISAIVLCDVMQKHNVKNFIFSSSATVYGIPKTLPITEEFPLSVTNPYGQTKLMIEQIMRDVAKADDEWSIALLRYFNPFGAHQSGRIGEDPNGIPNNLMPYVTQVAVGKLKELNIFGNDYPTKDGTGVRDYIHVVDLAKGHVKALEKVLKTKGIEAYNLGTGKGYSVLEMVKAFEKVSGKKIPYKVIGRRPGDVAICFADVSKAKRELGWEAEYGLEEMCVDSWRWQVNNKNGYQMI,not soluble
9,MAILYSKMKRSVTIKLQPSKEQEKILFELADVGAKVWNRVNYLRRQEFFEGKLVDFNRTEKIVYEEFKQETGSATVQQIARKNAEAWRSFFTNCPSGSSQNHQTTLEHHHHHH,not soluble
10,MAIYILEDQIIQAKALEVLLTNILHSRNIYNETIHLFSRSDELLQVAHQDAQLNIFFLDIQMNNHIQAGFEVAKEIRKTDSESLIVFISTHTELVLTSYKYMVSALQFIQKNVDFLDFQKEVETCVDAYIQQKENIKTKSEYIIINLKASSIKMDINDIYFFQTEYDHRVSMVGKNFKREFYGTLSKIEQLHPDLIRVHQSIIINKKYASKLNYKTHLLTMRDGTEVPVSRRYYTQVKALFLT,not soluble
11,MAKDGGVSCLRRSEMIGIGIGELESPPLDSDQVHVLAVDDSLVDRIVIERLLRITSCKVTAVDSGWRALEFLGLDDDKAAVEFDRLKVDLIITDYCMPGMTGYELLKKIKESTSFKEVPVVIMSSENVMTRIDRCLEEGAEDFLLKPVKLADVKRLRSYLTRDVKVAAEGNKRKLTTPPPPPPLSATSSMESSDSTVESPLSMVDDEDSLTMSPESATSLVDSPMRSPGLA,not soluble
12,MAKGGKSPKGKKITLNVAKNCIKITFDGRKRLDLSKMGITTFPKCILRLNEIDELDLSRNMIRKIPDSISKFQNLRWLDLHSNYIDKLPESIGQMTSLLFLNVSNNRLTTNGLPVELNQLKNIRTVNLGLNHLDSVPTTLGALKELHEVGLHDNLLTSIPAGISKLPKLKKLNVKRNPFPKPDESDMFVDSIKRLENLYLVEEKDLCSSCLQKCQQARDKLNKIRSMAPSAPRKAIFSNLVSPNSTAKESQEEWSV,not soluble
13,MAKGYWIAQVDVRDSERYKDYVSTAKPAFERFGANFLARGGSVTELEGTARARNVVIEFPSVQHAIDCYNSPEYQAAAKIRQEVADAEMMIVEGI,soluble
14,MAKIGENVPLLIDKAVDFMASSQAFREYLNKTPPRDYVPSEVPSESAPIYLQRLEYYRRLYRPKEEERG,not soluble
15,MAKINLTPKKIYEQEFKTSIRGYDKTEVDEFLDDVIKDYTVYIALVKELQEENAKLKAKATSAPASRPAYASATSEPSHATTNIASASNYDILKRISRLEKEVFGKQIVE,not soluble
16,MAKIYYDEDASLDILKDKVIAILGYGSQGHAHALNLRDSGLNVIIGLHEGSRSREKAKADGFEVYTPREAAKRADIIMFLIPDTVQPEVYKNEVEPELNSSKTLAFAHGFNIHFRQIVPPKDVDVFMVAPKGPGHLVRWMYTEGKGVPALVAIHQDASGTCKDKALAYAKGIGATRAGVIETTFKEETETDLFGEQMVLCGGVTALIKAGFETLVNAGYQPEVAYFECLHELKLIVDLIYEHGISGMRYSISDTAKYGDVTRGERIYKVVKPVMEKTLEEIQKGEFAREWILENKAGRPVYYALLERDREHLVEKVGEELRKMMPWLGKKELK,soluble
17,MAKKKSVFTCQECGYQSPKYLGRCPNCSAWSSFVEEVEVQEVKNARVSLNGEKSRPTKLKDVSSINYSRTKTDMDEFNRVLGGGVVPGSLVLIGGDPGIGKSTLLLQVSTQLANKGTVLYVSGEESAEQIKLRSERLGDIDNEFYLYAETNMQSIRSEIEKIKPDFLIIDSIQTIMSPEVSSVQGSVSQVREVTAELMQLAKTNNIATFIVGHVTKEGTLAGPRMLEHMVDTVLYFEGERHHTFRILRAVKNRFGSTNEIGIFEMQSGGLVEVLNPSQVFLEERLDGATGSAIVVTMEGTRPILAEVQALVTPTVFGNAKRTTTGLDFNRVSLIMAVLEKRCGLLLQNQDAYLKSAGGVKLDEPAIDLAVAVAIASSYKEKPTNPQESFIGEIGLTGEIRRVTRIEQRINEASKLGFTKIYAPKNSLAGIEIPKGIDVIGVTTVSQVLKAVFST,not soluble
